According to patent US20050079151A1, “Therapeutic agents for apoptosis-related diseases” (priority 1998, published 2005):

How the values were obtained:
[1] = test system: NG 108 cell lines; assay: Determination of DNA content in apoptosis-induced neurocytes (UV, PI staining, flow cytometry); type: cell-based, mouse; conditions: after UV exposure; for Ratio of cells at each cell cycle: G1: control group 7; for Ratio of cells at each cell cycle: G2/M: control group 9; for Ratio of cells at each cell cycle: S: control group 84
Method: The culture flasks were coated with MK 100 ng/ml or MK 10 μg/ml. The flasks without a MK-coating (control) were also prepared.
NG 108 cell lines, hybrid cells of mouse neuroblastoma C1300 and glioma (Nelson P. G. et al.: Brain Res., 147: 245, 1978), were cultured in a Falcon 3110 cell culture flask (75 cm^2, BECTON DICKINSON) containing 10% FBS/DMEM until the cells were almost confluent. After culturing, the cells were exposed to ultraviolet light for […] (UV radiation amount: 60-100 J/m^2) to induce apoptosis.
The cells were collected by centrifugation (4° C., 1000 rpm, 10 min), and washed with 10 to 12 ml of sample buffer [1 g glucose/1 L PBS (−); filtered through a 0.22 μm filter] twice. The cells were adjusted to 1×10^6 to 3×10^6 cells/ml with the sample buffer, and 1 ml of them was centrifuged (4° C., 1000 rpm, 10 min) in a centrifuge tube (FALCON; 15×75 mm). The supernatant was discarded and the pellet was vigorously vortexed for 10 sec. Ethanol (70%) cooled with ice (1 ml) was added dropwise thereto and fixed at 4° C. overnight.
The cells fixed overnight were briefly vortexed and centrifuged (3000 rpm, 5 min). 70% Ethanol in the supernatant was discarded to 0.2 ml or less. The centrifuge tubes containing the cells were slowly vortexed, and 1 ml of propidium iodide (PI) stain was added thereto. The PI stain contained 0.5 ml of 20×PI solution, 0.1 ml of 100×RNase A solution, and 10 ml of the sample buffer. Twenty-fold dilution of PI was obtained by preparing 1 mg/ml of PI solution (SIGMA), filtering it through a 0.22 μm filter, and storing it at 4° C. in the dark. RNase A solution (100×) was prepared by adjusting RIBONUCLEASE A (Type I-A) (SIGMA) (10000 U/ml) to 125 mg/ml (80 U/mg).
The cells were lightly shaken, incubated for 30 min or longer at room temperature, and measured by flow cytometry.

[2] = test system: Bcl-2; assay: Effect for enhancing Bcl-2 expression (Western blotting); type: cell-based; conditions: G401 cells
Method: The effect of MK on the expression of the Bcl-2 gene was examined. Six groups were prepared; the untreated group, the cisplatin (100 μM) treated group, the human MK (100 ng/ml) treated group, the human MK (100 ng/ml)+cisplatin (100 μM) group, the mouse MK (100 ng/ml) treated group, and the mouse MK (100 ng/ml)+cisplatin (100 μM) treated group.
G401 cells were seeded on a 3.5 cm-dish and cultured in 10% FBS/DMEM until the cells became almost confluent. The cells were washed twice and cultured in 0.1% FBS/DMEM overnight. Then, human MK or mouse MK (JP-A No. Hei 8-196293) was added to the MK treatment groups at 100 ng/ml and cultured for six hours. Cisplatin was added to the cisplatin treatment group to 100 μM, and cultured for 2 hours. After culturing, the cells were washed with 0.1% FBS/DMEM three times, cultured in 0.1% FBS/DMEM for 10 hours, and washed with PBS three times.
Two hundred microliters of buffer [1% Triton X-100, 150 mM NaCl, 10 mM Tris (pH 7.4), 1.0 mM EGTA, 0.5% NP-40, 1 mM PMSF, 0.1 μg/ml apiotinin, 40 nM Iewpeptin] were added to each dish and kept on ice for 20 min. The cells in each dish were detached by a scraper, and mixed 8 to 10 times using a syringe with a 26-gauge needle. The cells of each dish were centrifuged in a centrifuge tube at 4° C. at 12000 rpm for 30 min. The precipitated proteins were quantified (BCA Kit; PIERCE). The precipitate prepared from each dish (50 μg) was analyzed by Western blotting using anti-Bcl-2 monoclonal antibody (500×) (Dako; Denmark) and anti-mouse HRP antibody (Jackson Immuno Research) (FIG. 6). The band in each lane is numerically shown (FIG. 7).

[3] = test system: G401 cells; assay: Inhibitory effect on apoptosis induced by carcinostatic (Hoechst staining method); type: cell-based
Method: Five groups were prepared; the untreated group, the cisplatin (100 μM) treated group, the MK (1, 10, or 100 ng/mL)+cisplatin (100 μM) treated groups.
G401 cells (2×10^4) were seeded on a 3.5 cm-dish and cultured in 10% FBS/DMEM overnight. 10% FBS/DMEM was added to each dish and further cultured for 24 to 48 hours. The cells were washed twice and cultured in 0.1% FBS/DMEM overnight. MK was added to the MK treatment groups to 1, 10, or 100 ng/ml and cultured in 0.1% FBS/DMEM for 6 hours. Cisplatin was added to the cisplatin treatment groups to 100 μM and cultured in 0.1% FBS/DMEM for 2 hours. After culturing, the cells were washed three times. Then, human MK was added to the MK treatment groups to 1, 10, or 100 ng/ml and cultured in 0.1% FBS/DMEM for 12 or 24 hours.
The cells were fixed with a fixative (methanol:acetic acid=3:1) at room temperature for 10 min, and dried at room temperature for 30 min. Hoechst 33342 (ICN Biomedicals; Ohio, USA) was added thereto to stain the cells at room temperature for 10 to 30 min. The cells were washed with water three times, wind-dried, and mounted onto a fluorescent microscope (Olympus, BX60) and photographed. FIGS. 2A, 2B, and 2C show the untreated group, the cisplatin (100 μM) treated group, and the MK (100 ng/mL)+cisplatin (100 μM) treated group, which were all cultured for 12 hours. […]

B1: MK: midkine, a heparin-binding growth and differentiation factor; human MK protein (SEQ ID NO: 3; or recombinant, secreted by yeast) (protein, UniProt P21741 21-143, looked up)
Midkine: VAKKKDKVKKGGPGSECAEWAWGPCTPSSKDCGVGFREGTCGAQTQRIRCRVPCNWKKEFGADCKYKFENWGACDGGTGTKVRQGTLKKARYNAQCQETIRVTKPCTPKTKAKAKAKKGKGKD
Ratio of cells at each cell cycle: G1 ([1]; flask coated with MK 100 ng/ml): 75% | Ratio of cells at each cell cycle: G2/M ([1]; flask coated with MK 100 ng/ml): 5% | Ratio of cells at each cell cycle: S ([1]; flask coated with MK 100 ng/ml): 19% | Ratio of cells at each cell cycle: G1 ([1]; flask coated with MK 10 μg/ml): 67% | Ratio of cells at each cell cycle: G2/M ([1]; flask coated with MK 10 μg/ml): 24% | Ratio of cells at each cell cycle: S ([1]; flask coated with MK 10 μg/ml): 9% | change of the ratio of the cells at G1 phase compared with the control group ([1]; in the presence of MK): increased by about tenfold | change of the ratio of the cells at S phase compared with the control group ([1]; in the presence of MK): decreased one eighth to one forth | expression of Bcl-2 ([2]; MK 100 ng/ml, no cisplatin): enhanced the expression of Bcl-2 | concentration showing the Bcl-2 enhancing effect ([2]; data not shown): ≥ 10 ng/mL | numbers of cells containing Hoechst 33342-stained nuclei with condensed chromatin and fragmented nuclei ([3]; MK 100 ng/mL + cisplatin 100 μM, 12 and 24 hours, compared to cisplatin alone): remarkably decreased | Frequency of apoptotic cell death (Hoechst 33342) ([3]; MK 1, 10 or 100 ng/ml + cisplatin 100 μM, 12 and 24 hours culture, compared with the cisplatin treated group): decreased in a MK concentration-dependent fasion
